Assays:
HLA-A*0201 (human) = test: competition with 125I-labelled standard peptide on purified HLA, gel filtration
HLA-A*0101 (human) = test: competition with 125I-labelled standard peptide 944.02 ([..]) for purified HLA-A*0101, gel filtration
HLA-A*1101 (human) [1] = test: competition with 125I-labelled standard peptide for purified HLA-A*1101, gel filtration
HLA-A*0301 (human) [2] = test: competitive inhibition of 125I-labelled standard peptide binding to purified HLA, gel filtration
HLA-A*1101 (human) [3] = test: as above
HLA-B*0702 (human) = test: competition with 125I-labelled standard peptide for purified HLA, gel filtration
HLA-B*3501 (human) = test: as above
HLA-B*5101 (human) = test: as above
HLA-B*5301 (human) = test: as above
HLA-B*5401 (human) = test: as above
HLA-A*0301 (human) [4] = test: competition with 125I-labeled standard peptide for purified HLA-A*0301, gel filtration
HLA-A*1101 (human) [5] = test: competition with 125I-labelled standard probe peptide for purified HLA-A*1101, gel filtration

YMLDLQPET (modifications not checked) [HPV16 E7 11 …]
binding affinity ratio (IC50 of standard peptide / IC50 of test peptide) (HLA-A*0201 (human)): 0.14

AVCDKCLKFY (modifications not checked) [HPV16 E6 68 …]
binding affinity ratio (IC50 of standard peptide / IC50 of test peptide) (HLA-A*0101 (human)): 0.0095

KLRAGQNHR (modifications not checked) [HPV18 E1 position 647 peptide …]
binding affinity ratio (IC50 of standard peptide / IC50 of test peptide) (HLA-A*1101 (human) [1]): 0.0013 | binding affinity ratio (IC50 of standard peptide / IC50 of test peptide) (HLA-A*0301 (human) [2]): 0.3 | binding affinity ratio (IC50 of standard peptide / IC50 of test peptide) (HLA-A*1101 (human) [3]): 0.0013

KSFLKGTPK (modifications not checked) [HPV18 E1 position 468 peptide …]
binding affinity ratio (IC50 of standard peptide / IC50 of test peptide) (HLA-A*1101 (human) [1]): 0.0015 | binding affinity ratio (IC50 of standard peptide / IC50 of test peptide) (HLA-A*0301 (human) [2]): 0.0003 | binding affinity ratio (IC50 of standard peptide / IC50 of test peptide) (HLA-A*1101 (human) [3]): 0.0015

LILALLRYK (modifications not checked) [HPV18 E1 position 281 peptide …]
binding affinity ratio (IC50 of standard peptide / IC50 of test peptide) (HLA-A*0301 (human) [2]): 0.27 | binding affinity ratio (IC50 of standard peptide / IC50 of test peptide) (HLA-A*1101 (human) [3]): 0.18

LTTNIHPAK (modifications not checked) [HPV18 E1 position 571 peptide …]
binding affinity ratio (IC50 of standard peptide / IC50 of test peptide) (HLA-A*0301 (human) [2]): 0.091 | binding affinity ratio (IC50 of standard peptide / IC50 of test peptide) (HLA-A*1101 (human) [3]): 0.12

CIVYRDGNPY (modifications not checked) [HPV16 E6 58 …]
binding affinity ratio (IC50 of standard peptide / IC50 of test peptide) (HLA-A*0101 (human)): 0.0015

NIHPAKDNR (modifications not checked) [HPV18 E1 position 574 peptide …]
binding affinity ratio (IC50 of standard peptide / IC50 of test peptide) (HLA-A*0301 (human) [2]): 0.0005 | binding affinity ratio (IC50 of standard peptide / IC50 of test peptide) (HLA-A*1101 (human) [3]): 0.0002

NSGQKKAKR (modifications not checked) [HPV18 E1 position 119 peptide …]
binding affinity ratio (IC50 of standard peptide / IC50 of test peptide) (HLA-A*0301 (human) [2]): 0.0005 | binding affinity ratio (IC50 of standard peptide / IC50 of test peptide) (HLA-A*1101 (human) [3]): 0.0002

GTTLEQQY (modifications not checked) [HPV16 E6 92 GTTLEQQY]
binding affinity ratio (IC50 of standard peptide / IC50 of test peptide) (HLA-A*0101 (human)): 0.0006

QVLHVLKRK (modifications not checked) [HPV18 E1 position 80 peptide …]
binding affinity ratio (IC50 of standard peptide / IC50 of test peptide) (HLA-A*0301 (human) [2]): 0.0028 | binding affinity ratio (IC50 of standard peptide / IC50 of test peptide) (HLA-A*1101 (human) [3]): 0.002

WTYFDTYMR (modifications not checked) [HPV18 E1 position 536 peptide …]
binding affinity ratio (IC50 of standard peptide / IC50 of test peptide) (HLA-A*0301 (human) [2]): 0.0005 | binding affinity ratio (IC50 of standard peptide / IC50 of test peptide) (HLA-A*1101 (human) [3]): 0.012

DTPTLHEY (modifications not checked) [HPV16 E7 4 DTPTLHEY]
binding affinity ratio (IC50 of standard peptide / IC50 of test peptide) (HLA-A*0101 (human)): 0.0002

DPTRRPYKL (modifications not checked) [HPV18 E6 peptide … (position 6, 9 amino acids)]
binding affinity ratio (IC50 of standard peptide / IC50 of test peptide) (HLA-B*0702 (human)): 0.0001 | binding affinity ratio (IC50 of standard peptide / IC50 of test peptide) (HLA-B*3501 (human)): 0.0001 | binding affinity ratio (IC50 of standard peptide / IC50 of test peptide) (HLA-B*5101 (human)): 0.0001 | binding affinity ratio (IC50 of standard peptide / IC50 of test peptide) (HLA-B*5301 (human)): 0.0001 | binding affinity ratio (IC50 of standard peptide / IC50 of test peptide) (HLA-B*5401 (human)): 0.0002

IPHAACHKCI (modifications not checked) [HPV18 E6 peptide … (position 60, 10 amino acids)]
binding affinity ratio (IC50 of standard peptide / IC50 of test peptide) (HLA-B*0702 (human)): 0.0065 | binding affinity ratio (IC50 of standard peptide / IC50 of test peptide) (HLA-B*3501 (human)): 0.0001 | binding affinity ratio (IC50 of standard peptide / IC50 of test peptide) (HLA-B*5101 (human)): 0.0046 | binding affinity ratio (IC50 of standard peptide / IC50 of test peptide) (HLA-B*5301 (human)): 0.0001 | binding affinity ratio (IC50 of standard peptide / IC50 of test peptide) (HLA-B*5401 (human)): 0.0005

KPLNPAEKL (modifications not checked) [HPV18 E6 peptide … (position 110, 9 amino acids)]
binding affinity ratio (IC50 of standard peptide / IC50 of test peptide) (HLA-B*0702 (human)): 0.035 | binding affinity ratio (IC50 of standard peptide / IC50 of test peptide) (HLA-B*3501 (human)): 0.0001 | binding affinity ratio (IC50 of standard peptide / IC50 of test peptide) (HLA-B*5101 (human)): 0.0001 | binding affinity ratio (IC50 of standard peptide / IC50 of test peptide) (HLA-B*5301 (human)): 0.0001 | binding affinity ratio (IC50 of standard peptide / IC50 of test peptide) (HLA-B*5401 (human)): 0.0002

NPAEKLRHL (modifications not checked) [HPV18 E6 peptide … (position 113, 9 amino acids)]
binding affinity ratio (IC50 of standard peptide / IC50 of test peptide) (HLA-B*0702 (human)): 0.011 | binding affinity ratio (IC50 of standard peptide / IC50 of test peptide) (HLA-B*3501 (human)): 0.0001 | binding affinity ratio (IC50 of standard peptide / IC50 of test peptide) (HLA-B*5101 (human)): 0.0001 | binding affinity ratio (IC50 of standard peptide / IC50 of test peptide) (HLA-B*5301 (human)): 0.0001 | binding affinity ratio (IC50 of standard peptide / IC50 of test peptide) (HLA-B*5401 (human)): 0.0002

EPQNEIPVDL (modifications not checked) [HPV18 E7 peptide … (position 16, 10 amino acids)]
binding affinity ratio (IC50 of standard peptide / IC50 of test peptide) (HLA-B*0702 (human)): 0.0001 | binding affinity ratio (IC50 of standard peptide / IC50 of test peptide) (HLA-B*3501 (human)): 0.0005 | binding affinity ratio (IC50 of standard peptide / IC50 of test peptide) (HLA-B*5101 (human)): 0.0001 | binding affinity ratio (IC50 of standard peptide / IC50 of test peptide) (HLA-B*5301 (human)): 0.0001 | binding affinity ratio (IC50 of standard peptide / IC50 of test peptide) (HLA-B*5401 (human)): 0.0001

EPQRHTMLCM (modifications not checked) [HPV18 E7 peptide … (position 55, 10 amino acids)]
binding affinity ratio (IC50 of standard peptide / IC50 of test peptide) (HLA-B*0702 (human)): 0.0026 | binding affinity ratio (IC50 of standard peptide / IC50 of test peptide) (HLA-B*3501 (human)): 0.0002 | binding affinity ratio (IC50 of standard peptide / IC50 of test peptide) (HLA-B*5101 (human)): 0.0003 | binding affinity ratio (IC50 of standard peptide / IC50 of test peptide) (HLA-B*5301 (human)): 0.0043 | binding affinity ratio (IC50 of standard peptide / IC50 of test peptide) (HLA-B*5401 (human)): 0.0001

GPKATLQDI (modifications not checked) [HPV18 E7 peptide … (position 3, 9 amino acids)]
binding affinity ratio (IC50 of standard peptide / IC50 of test peptide) (HLA-B*3501 (human)): 0.0001 | binding affinity ratio (IC50 of standard peptide / IC50 of test peptide) (HLA-B*5101 (human)): 0.0001 | binding affinity ratio (IC50 of standard peptide / IC50 of test peptide) (HLA-B*5301 (human)): 0.0001 | binding affinity ratio (IC50 of standard peptide / IC50 of test peptide) (HLA-B*5401 (human)): 0.0002

GPKATLQDIV (modifications not checked) [HPV18 E7 peptide … (position 3, 10 amino acids)]
binding affinity ratio (IC50 of standard peptide / IC50 of test peptide) (HLA-B*0702 (human)): 0.0001 | binding affinity ratio (IC50 of standard peptide / IC50 of test peptide) (HLA-B*3501 (human)): 0.0001 | binding affinity ratio (IC50 of standard peptide / IC50 of test peptide) (HLA-B*5101 (human)): 0.0001 | binding affinity ratio (IC50 of standard peptide / IC50 of test peptide) (HLA-B*5301 (human)): 0.0001 | binding affinity ratio (IC50 of standard peptide / IC50 of test peptide) (HLA-B*5401 (human)): 0.0001

PPKLRSTAA (modifications not checked) [HPV31 E1 289 peptide … (B07 supermotif peptide)]
binding affinity ratio (IC50 of standard peptide / IC50 of test peptide) (HLA-B*0702 (human)): 0.0014

CPEEKQRHL (modifications not checked) [HPV31 E6 111 …]
relative binding ratio (IC50 of standard peptide / IC50 of test peptide) (HLA-B*5101 (human)): 0.0074 | relative binding ratio (IC50 of standard peptide / IC50 of test peptide) (HLA-B*5301 (human)): 0.0006

QVLHVLKRK (modifications not checked) [HPV18 E1 80-88 peptide …]
binding affinity ratio relative to standard peptide (IC50 standard / IC50 test) (HLA-A*0301 (human) [4]): 0.0028

LSFVCPWCA (modifications not checked) [HPV18 E7 94-102 peptide …]
relative binding ratio (IC50 of standard peptide / IC50 of test peptide) (HLA-A*0301 (human) [4]): 0.0005

QLFLNTLSF (modifications not checked) [HPV18 E7 88-96 peptide …]
relative binding ratio (IC50 of standard peptide / IC50 of test peptide) (HLA-A*0301 (human) [4]): 0.0005

RIKLVVESSA (modifications not checked) [HPV18 E7 71-80 peptide …]
relative binding ratio (IC50 of standard peptide / IC50 of test peptide) (HLA-A*0301 (human) [4]): 0.0005

TMLCMCCK (modifications not checked) [HPV18 E7 60-67 peptide TMLCMCCK]
relative binding ratio (IC50 of standard peptide / IC50 of test peptide) (HLA-A*0301 (human) [4]): 0.024

EGTGCNGWFY (modifications not checked) [HPV18 E1 10-19 peptide …]
relative binding ratio (IC50 of standard peptide / IC50 of test peptide) (HLA-A*1101 (human) [5]): 0.0002

LILALLRYK (modifications not checked) [HPV18 E1 281 …]
binding affinity ratio (IC50 of standard peptide / IC50 of test peptide) (HLA-A*1101 (human) [5]): 0.18

LTTNIHPAK (modifications not checked) [HPV18 E1 571 …]
binding affinity ratio (IC50 of standard peptide / IC50 of test peptide) (HLA-A*1101 (human) [5]): 0.12

NIHPAKDNR (modifications not checked) [HPV18 E1 574 …]
binding affinity ratio (IC50 of standard peptide / IC50 of test peptide) (HLA-A*1101 (human) [5]): 0.0002

NSGQKKAKR (modifications not checked) [HPV18 E1 119 …]
binding affinity ratio (IC50 of standard peptide / IC50 of test peptide) (HLA-A*1101 (human) [5]): 0.0002

Source: patent US7026443
